# Data taken from the RNAGym collection of RNA variant scans (doi:10.7554/elife.80360).
# B1: CPEB3 Ribozyme (parent)
# chain: GGGGGCCACAGCAGAAGCGUUCACGUCGCGGCCCCUGUCAGAUUCUGGUGAAUCUGCGAAUUCUGCUGU
# Variants of: B1
# Assay: self-cleavage, relative activity (ratio to wild type); higher = more cleavage; co-transcriptional
row,Variant,self-cleavage
1,GGGGGCCACAGCAGAAGCGUUCACGUCGCGGCCCUUGUCAGAUUCUGGUGAAUCUUCGAAUUCUGCUGU,0.859
2,GGGGGCCACAGCAGAAGCGUUCACGUCGCGGCCCUUGUCAGAUUCUGGUGAAUCUCCGAAUUCUGCUGU,0.651
3,GGGGGCCACAGCAGAAGCGUUCACGUCGCGGCCCUUGUCAGAUUCUGGUGAAUCUACGAAUUCUGCUGU,0.819
4,GGGGGCCACAGCAGAAGCGUUCACGUCGCGGCCCUGGUCAGAUUCUGGUGAAUCUGCGAAUUCUGCUGU,0.237
5,GGGGGCCACAGCAGAAGCGUUCACGUCGCGGCCCUCGUCAGAUUCUGGUGAAUCUGCGAAUUCUGCUGU,0.941
6,GGGGGCCACAGCAGAAGCGUUCACGUCGCGGCCCUAGUCAGAUUCUGGUGAAUCUGCGAAUUCUGCUGU,0.212
7,GGGGGCCACAGCAGAAGCGUUCACGUCGCGGCCCUUGUCAGAAUCUGGUGAAUCUGCGAAUUCUGCUGU,0.818
8,GGGGGCCACAGCAGAAGCGUUCACGUCGCGGCCCUUGUCAGACUCUGGUGAAUCUGCGAAUUCUGCUGU,0.866
9,GGGGGCCACAGCAGAAGCGUUCACGUCGCGGCCCUUGGCAGAUUCUGGUGAAUCUGCGAAUUCUGCUGU,0.184
10,GGGGGCCACAGCAGAAGCGUUCACGUCGCGGCCCUUGACAGAUUCUGGUGAAUCUGCGAAUUCUGCUGU,0.901
11,GGGGGCCACAGCAGAAGCGUUCACGUCGCGGCCCUUGCCAGAUUCUGGUGAAUCUGCGAAUUCUGCUGU,0.876
12,GGGGGCCACAGCAGAAGCGUUCACGUCGCGGCCCUUAUCAGAUUCUGGUGAAUCUGCGAAUUCUGCUGU,0.253
13,GGGGGCCACAGCAGAAGCGUUCACGUCGCGGCCCUUGUCAGAUUCUGGUGAAUCUGCGAAUUCUUCUGU,0.632
14,GGGGGCCACAGCAGAAGCGUUCACGUCGCGGCCCUUGUCAGAUUCUGGUGAAUCUGCGAAUUCUACUGU,0.847
15,GGGGGCCACAGCAGAAGCGUUCACGUCGCGGCCCUUGUCAGAUACUGGUGAAUCUGCGAAUUCUGCUGU,0.889
16,GGGGGCCACAGCAGAAGCGUUCACGUCGCGGCCCUUGUCAGAUCCUGGUGAAUCUGCGAAUUCUGCUGU,0.919
17,GGGGGCCACAGCAGAAGCGUUCACGUCGCGGCCCUUGUCAGAUUCUGGUGAAUCUGCAAAUUCUGCUGU,0.878
18,GGGGGCCACAGCAGAAGCGUUCACGUCGCGGCCCUUGUCAGAUUCUGGUGAAUCUGCUAAUUCUGCUGU,0.984
19,GGGGGCCACAGCAGAAGCGUUCACGUCGCGGCCCUUGUCAGAUUCUGGUGAAUCUGCCAAUUCUGCUGU,0.878
20,GGGGGCCACAGCAGAAGCGUUCACGUCGCGGCCCUUGUCAGAUUCUGCUGAAUCUGCGAAUUCUGCUGU,0.964

row,Variant,self-cleavage
1,GGGGGCCACAGCAGAAGCGUUCACGUCGCGGCCCUUGUCAGAUUCUGAUGAAUCUGCGAAUUCUGCUGU,1.01
2,GGGGGCCACAGCAGAAGCGUUCACGUCGCGGCCCUUGUCAGAUUCUGUUGAAUCUGCGAAUUCUGCUGU,0.987
3,GGGGGCCACAGCAGAAGCGUUCACGUCGCGGCCCUUGUCAGAUUCUGGUGAAACUGCGAAUUCUGCUGU,0.833
4,GGGGGCCACAGCAGAAGCGUUCACGUCGCGGCCCUUGUCAUAUUCUGGUGAAUCUGCGAAUUCUGCUGU,0.745
5,GGGGGCCACAGCAGAAGCGUUCACGUCGCGGCCCUUGUCACAUUCUGGUGAAUCUGCGAAUUCUGCUGU,0.632
6,GGGGGCCACAGCAGAAGCGUUCACGUCGCGGCCCUUGUCAGAUUCUGGUCAAUCUGCGAAUUCUGCUGU,0.979
7,GGGGGCCACAGCAGAAGCGUUCACGUCGCGGCCCUUGUCAGAUUCUGGUAAAUCUGCGAAUUCUGCUGU,0.974
8,GGGGGCCACAGCAGAAGCGUUCACGUCGCGGCCCUUGUCAGAUUCCGGUGAAUCUGCGAAUUCUGCUGU,0.976
9,GGGGGCCACAGCAGAAGCGUUCACGUCGCGGCCCUUGUCAGAUUCAGGUGAAUCUGCGAAUUCUGCUGU,0.907
10,GGGGGCCACAGCAGAAGCGUUCACGUCGCGGCCCUUGUCAGAUUCGGGUGAAUCUGCGAAUUCUGCUGU,0.967
11,GGGGGCCACAGCAGAAGCGUUCACGUCGCGGCCCUUGUCAGAUUCUGGGGAAUCUGCGAAUUCUGCUGU,0.909
12,GGGGGCCACAGCAGAAGCGUUCACGUCGCGGCCCUUGUCAGAUUCUGGCGAAUCUGCGAAUUCUGCUGU,0.956
13,GGGGGCCACAGCAGAAGCGUUCACGUCGCGGCCCUUGUCAGAUUCUGGUGAAUCGGCGAAUUCUGCUGU,0.653
14,GGGGGCCACAGCAGAAGCGUUCACGUCGCGGCCCUUGUCAGAUUCUGGUGAAUCCGCGAAUUCUGCUGU,0.699
15,GGGGGCCACAGCAGAAGCGUUCACGUCGCGGCCCUUGUCAGAUUCUGGUGAAUCUGCGAAUUCUGCUCU,0.963
16,GGGGGCCACAGCAGAAGCGUUCACGUCGCGGCCCUUGUCAGAUUCUGGUGAAUCUGCGAAUUCUGCUUU,1.01
17,GGGGGCCACAGCAGAAGCGUUCACGUCGCGGCCCUUGUCAGAUUCUAGUGAAUCUGCGAAUUCUGCUGU,0.918
18,GGGGGCCACAGCAGAAGCGUUCACGUCGCGGCCCUUGUCAGAUUCUUGUGAAUCUGCGAAUUCUGCUGU,1.01
19,GGGGGCCACAGCAGAAGCGUUCACGUCGCGGCCCUUGUCAGAUUCUCGUGAAUCUGCGAAUUCUGCUGU,0.967
